These are literature values, as cited in PMC10213776.

For orientation: Kd means the equilibrium constant for the complex coming apart.

This data set addresses IL-18 (Homo sapiens) (UniProt Q14116).

IL-18 (Homo sapiens), sequence (Q14116 37-193): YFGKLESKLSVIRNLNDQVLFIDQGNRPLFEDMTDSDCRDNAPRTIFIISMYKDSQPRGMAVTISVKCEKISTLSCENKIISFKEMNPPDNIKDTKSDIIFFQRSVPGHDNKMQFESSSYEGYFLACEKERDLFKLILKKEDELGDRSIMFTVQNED
IL-18BP, sequence (O95998 31-194): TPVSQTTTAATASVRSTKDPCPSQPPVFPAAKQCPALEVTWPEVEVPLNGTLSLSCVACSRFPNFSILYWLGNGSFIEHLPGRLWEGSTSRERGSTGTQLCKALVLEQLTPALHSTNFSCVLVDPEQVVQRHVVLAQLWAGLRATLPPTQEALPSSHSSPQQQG

IL-18BP (from UniProt O95998): the Kd is 0.4 nM.
